In patent US20230152323A1 (NORDIC BIOSCIENCE A S, published 2023):
No end group written: not given here.

Tests used:
[1] = biological target: T1, SPARC-like protein 1 (SLP1) peptide LLLRDFKKNY (human); experiment: competitive SPARC-M ELISA, peptide as competitor
T1 construct: A peptide was tested, not the whole protein
T1 peptide: LLLRDFKKNY
Protocol: (§1) The specificity of the antibody was tested by including an elongated standard peptide with an additional amino acid added to the N-terminal of the target peptide sequence ([…]; SEQ ID NO: 2), a truncated standard peptide with a removal of the first N-terminal amino acid ([…]; SEQ ID NO: 3) as well as a non-sense standard peptide ([…]; SEQ ID NO: 4) and a non-sense biotinylated coating peptide ([…]-biotin; SEQ ID NO: 5) in the assay validation. Four peptides (Von Willebrand factor, glucagon, SPARC-like protein 1 and ADAMTS15) with one amino acid mismatch compared to the first six amino acids in the target sequence were also included to further test the antibody specificity. The immunogenic peptide ([…]-GGC-KLH; SEQ ID NO: 6) was generated by covalently cross-linking the standard peptide to Keyhole Limpet Hemocyanin (KLH) carrier protein using Succinimidyl 4-(N-maleimidomethyl)cyclohexane-1-carboxylate, SMCC (Thermo Scientific, Waltham, MA, USA, cat.no. 22336). Glycine and cysteine residues were added at the C-terminal end to ensure right linking of the carrier protein.
(§2) A 96-well streptavidin-coated microtiter plate was coated with 1.1 ng/mL biotinylated coating peptide dissolved in assay buffer (50 mM Tris-BTB, 4 g/L NaCl, pH 8.0) and incubated for 30 min. at 20° C. in darkness shaking (300 rpm). Twenty µL standard peptide or pre-diluted serum (1:4) were added to appropriate wells, followed by the addition of 100 µL monoclonal antibody dissolved in assay buffer to a concentration of 14 ng/mL to each well and incubated 1 hour at 20° C. in darkness shaking (300 rpm). One hundred µL of goat anti-mouse POD-conjugated IgG antibody (Thermo Scientific, Waltham, MA, USA, cat. #31437) diluted 1:6000 in assay buffer was added to each well and incubated 1 hour at 20° C. in darkness shaking. All incubation steps were followed by five washes in washing buffer (20 mM Tris, 50 mM NaCl, pH 7.2). Finally, 100 µL tetramethylbenzidine (TMB) (cat. 438OH, Kem-En-Tec Diagnostics, Denmark) was added to each well and the plate was incubated for 15 minutes at 20° C. in darkness shaking. The enzymatic reaction was stopped by adding 0.18 M H₂SO₄ and absorbance was measured at 450 nm with 650 nm as reference. A calibration curve was plotted using a 4-parameter logistic curve fit. Data were analyzed using the SoftMax Pro v.6.3 software.

[2] = biological target: T2, Glucagon (GCG) peptide LAARDFINWL (human); experiment: competitive SPARC-M ELISA, peptide as competitor
T2 construct: A peptide was tested, not the whole protein
T2 peptide: LAARDFINWL
Protocol: as §1, §2

[3] = biological target: T3, Von Willebrand factor (VWF) peptide LLARDCQDHS (human); experiment: competitive SPARC-M ELISA, peptide as competitor
T3 construct: A peptide was tested, not the whole protein
T3 peptide: LLARDCQDHS
Protocol: as §1, §2

[4] = biological target: T4, ADAMTS15 (A15) peptide LLARDQCNLH (human); experiment: competitive SPARC-M ELISA, peptide as competitor
T4 construct: A peptide was tested, not the whole protein
T4 peptide: LLARDQCNLH
Protocol: as §1, §2

[5] = biological target: T5, Recombinant human SPARC, full-length, uncleaved (human, UniProt P09486 18-303); experiment: competitive SPARC-M ELISA on recombinant SPARC incubated without protease
T5 construct: Incubated in MMP buffer without protease and then measured in the SPARC-M ELISA; also called recombinant full-length SPARC; osteonectin
T5 sequence (looked up): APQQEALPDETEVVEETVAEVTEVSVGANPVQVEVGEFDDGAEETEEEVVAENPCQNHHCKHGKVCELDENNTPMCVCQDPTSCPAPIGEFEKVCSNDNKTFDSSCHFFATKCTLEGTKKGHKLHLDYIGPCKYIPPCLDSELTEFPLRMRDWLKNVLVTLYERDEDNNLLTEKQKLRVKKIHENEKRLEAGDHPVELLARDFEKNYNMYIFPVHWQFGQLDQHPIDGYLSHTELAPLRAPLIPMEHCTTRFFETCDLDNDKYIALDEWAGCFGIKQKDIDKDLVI

[6] = biological target: T6, Standard peptide LLARDFEKNY (human); experiment: preliminary competitive ELISA, hybridoma supernatant, 10 ng/mL biotinylated coating peptide
T6 construct: Synthetic peptide from Genscript with a free N-terminus; also called calibration peptide
T6 peptide: LLARDFEKNY
Protocol: The reactivity of the monoclonal antibody was evaluated by displacement using human serum samples and the standard peptide ([…]; SEQ ID NO: 1) in a preliminary ELISA using 10 ng/mL biotinylated coating peptide on streptavidin-coated microtiter plates (Roche, Basel, Switzerland, cat. #11940279) and the supernatant from the antibody producing monoclonal hybridoma cells. The clone with the best reactivity towards the standard peptide was purified using protein-G-columns according to the manufacturer’s instructions (GE Healthcare Life Sciences, Little Chalfont, UK, cat. #17-0404-01 ).

[7] = biological target: T7, Non-sense coating peptide VPKDLPPDTT-biotin; experiment: ELISA, peptide coated on a streptavidin plate
T7 construct: Held on streptavidin-coated plates; also called non-sense biotinylated coating peptide
T7 peptide: VPKDLPPDTT-biotin
Protocol: as §1, with “The target sequence was used as the standard peptide ([…]; SEQ ID NO: 1). A biotinylated peptide ([…]-K-biotin; SEQ ID NO:7) was included as a coating peptide with addition of a lysine residue to the C-terminal end to ensure biotin linking. The specificity” for “The specificity”, “carrier protein. […]” for “carrier protein.”

B1: SPARC-M monoclonal antibody (antibody, mouse IgG1, kappa, V domains shown)
VH: EVKLVESGGGLVKPGGSLKLSCAASGFTFSRNAMSWVRQTPEKRLEWVASISTSDNTYYPDSVKGRFTISKDNARNILYLQMSSLRSEDTAMYYCASGFDVGAYWGQGTLVTVSA
VL: DVLMTQTPLSLPVSLGDQASISCRSSQSIVHSNGNTYLEWYLQKPGQSPKLLIYKVSNRFSGVPDRFSGSGSGTDFTLKISRVDTEDLGVYYCFQGSHVPLTFGAGTKLELKR
notes: also called the antibody; the selected antibody
binding result [1]: no binding
binding result [2]: no binding
binding result [3]: no binding
binding result [4]: no binding
binding result [5]: no binding
binding result [6]: binds
binding result [7]: no binding
